Values quoted from earlier work, collected in PMC9598996.

Columns and labels:
Cys95 = Cys95 (UniProt position 595, LTQIGCTLNFP); settings: native (folded) enzyme, cysteines reduced
Cys67 = Cys67 (UniProt position 567, ILIEICGHKAI); settings: native (folded) enzyme, cysteines reduced

HIV-1 protease (retropepsin) (Human immunodeficiency virus type 1)
pKa (Cys95): about 6
pKa (Cys67): about 6
